Drawing on PMC4570671, “A Novel Aldo-Keto Reductase (AKR17A1) of Anabaena sp. PCC 7120 Degrades the Rice Field Herbicide Butachlor and Confers Tolerance to Abiotic Stresses in E. coli” (PLoS ONE, 2015), this text covers Km, kcat and kcat/Km for one substance.

What all share (assay): purified protein
Common to all, as to details: 0.12 mM NADPH, 50 mM potassium phosphate pH 7.4, 10 mM 2-mercaptoethanol, 37°C

Data set [1] relates to CC(=O)C=O.
The test system of data set [2] is CCCCOCN(C(=O)CCl)c1c(CC)cccc1CC.
Data set [3] relates to CCOC(=O)C(C)=O.
Data set [4] deals with O=C1Nc2ccccc2C1=O.
For data set [5], the system named is O=Cc1ccccc1[N+](=O)[O-].
In data set [6] the test system is O=Cc1ccccc1.

With “AKR17A1 (All2316) (Nostoc sp. PCC 7120 = FACHB-418)”, the Km in data set [1] is listed as 4.164 (0.973) mM; in data set [2], 0.548 (0.190) mM; in data set [3] it was 6.213 (2.214) mM; in data set [4], 0.011 (0.005) mM; in data set [5], 0.014 (0.002) mM; in data set [6], 3.740 (1.098) mM. Also, the kcat is 1.6 s⁻¹ in data set [1]; 2.11 s⁻¹ in data set [2]; 1.43 s⁻¹ in data set [3]; 1.58 s⁻¹ in data set [4]; 1.59 s⁻¹ in data set [5]; 1.51 s⁻¹ in data set [6]. Moreover, the specificity constant (kcat/Km) in data set [1] came to 383 M⁻¹ s⁻¹; in data set [2], 3840 M⁻¹ s⁻¹; in data set [3], 228 M⁻¹ s⁻¹; in data set [4], 136000 M⁻¹ s⁻¹; in data set [5], 114000 M⁻¹ s⁻¹; in data set [6] it was 404 M⁻¹ s⁻¹.

A word on the kcat: it is the number of substrate molecules converted per active site and unit of time at saturation. By kcat/Km is commonly meant the second-order rate constant that governs catalysis at low substrate concentration.
